B1: FBF1 (parent)
chain: LQRASILDMRRDHEEQLQRLKLLK

Variants of: B1
Experiment: protein stability index of a GFP-peptide fusion (GPS, HEK-293T) (PSI 1-6); higher = more stable
Settings: c terminus: a fixed tail appended
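Also: lentivirally expressed fusions sorted by FACS into six bins by GFP to DsRed ratio, PSI derived from sequencing read proportions per bin multiplied by bin number.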

Variant	protein stability index
A4Q	3.7
A4T	3.6
A4P	4.08
A4M	3.19
A4E	4.02
A4C	2.97
A4I	3.13
A4W	2.28
A4D	3.64
A4Y	2.96
A4L	3.13
A4N	3.83
A4G	3.17
A4H	3.73
A4K	3.19
A4V	2.57
A4S	2.67
A4F	2.9
A4R	3.83
R10C	2.8
R10A	3.36
R10E	3.35
R10D	3.44
I6N	4.16

Variant	protein stability index
I6R	3.46
I6S	4.15
I6V	3.57
I6C	3.4
I6M	3.94
I6A	4.03
I6P	3.94
I6Q	4.06
I6E	3.98
I6W	3.62
I6T	3.66
I6F	3.51
I6D	4.31
I6K	3.7
I6Y	3.58
I6H	4.19
I6L	4.02
I6G	4.28
M9I	3.81
M9H	3.49
M9S	3.49
M9V	3.61
M9W	3.04
M9L	3.24

Variant	protein stability index
M9K	3.9
M9C	2.25
M9Q	3.86
M9N	3.85
M9G	4.12
M9R	3.72
M9Y	3.61
M9P	3.93
M9D	3.4
M9A	3.84
M9F	3.22
M9T	3.94
M9E	3.72
S5A	3.59
S5I	2.34
S5W	2.34
S5L	2.49
S5G	3.71
S5R	2.83
S5C	2.99
S5H	2.86
S5Q	3.85
S5F	2.3
S5V	2.92

Variant	protein stability index
S5E	3.15
S5N	3.65
S5K	3.21
S5T	3.52
S5D	3.81
S5M	3.03
S5Y	2.26
S5P	3.48
L1T	3.94
L1W	3.22
L1Y	2.35
L1N	3.64
L1K	3.64
L1P	3.87
L1Q	3.69
L1S	3.35
L1R	3.3
L1M	3.45
L1V	3.51
Q2H	3.35
Q2K	2.93
Q2P	3.95
Q2W	2.4
Q2I	2.49

Variant	protein stability index
Q2N	3.85
Q2V	2.88
Q2S	3.15
Q2T	3.54
Q2G	3.79
Q2A	3.28
Q2D	3.94
Q2F	3
Q2R	3.27
Q2L	2.25
Q2E	3.44
Q2M	3.28
Q2Y	2.77
Q2C	2.63
R3K	3.74
R3P	4.02
R3E	4.12
R3S	3.9
R3I	2.23
R3G	4.21
R3Y	3.4
R3N	3.93
R3Q	3.33
R3D	4.17

Variant	protein stability index
R3L	2.92
R3A	3.86
R3V	2.92
R3C	3.02
R3M	3.02
R3H	3.92
R3T	3.5
R3F	2.8
R3W	1.9
D8P	3.51
D8M	3.06
D8E	3.86
D8W	2.5
D8A	3.01
D8V	2.33
D8T	3.49
D8G	2.76
D8R	2.71
D8I	2.51
D8C	3.2
D8L	2.19
D8K	2.77
D8H	3.61
D8Y	2.72

Variant	protein stability index
D8N	3.48
D8F	2.56
D8S	3.6
D8Q	3.07
L7E	4.55
L7F	2.85
L7Q	3.65
L7T	3.38
L7K	3.42
L7P	3.98
L7C	3.68
L7R	3.6
L7M	3.85
L7W	2.9
L7A	4.22
L7Y	3.56
L7G	4.1
L7H	4.1
L7D	4.03
L7V	3.97
L7N	3.99
L7I	3.09
L7S	4.27

Reference: the supplement of paper PMC10567573
